Values quoted from earlier work, collected in PMC3043165.
pIC50: −log10 of the molar value.

Experiments:
[1] = biological target: integrin αvβ5 (Homo sapiens) (UniProt P06756)
[2] = biological target: integrin αIIbβ3 (Homo sapiens) (UniProt P08514)

Sequence of integrin αvβ5 (Homo sapiens) (P06756 31-992, chain 1 of 2): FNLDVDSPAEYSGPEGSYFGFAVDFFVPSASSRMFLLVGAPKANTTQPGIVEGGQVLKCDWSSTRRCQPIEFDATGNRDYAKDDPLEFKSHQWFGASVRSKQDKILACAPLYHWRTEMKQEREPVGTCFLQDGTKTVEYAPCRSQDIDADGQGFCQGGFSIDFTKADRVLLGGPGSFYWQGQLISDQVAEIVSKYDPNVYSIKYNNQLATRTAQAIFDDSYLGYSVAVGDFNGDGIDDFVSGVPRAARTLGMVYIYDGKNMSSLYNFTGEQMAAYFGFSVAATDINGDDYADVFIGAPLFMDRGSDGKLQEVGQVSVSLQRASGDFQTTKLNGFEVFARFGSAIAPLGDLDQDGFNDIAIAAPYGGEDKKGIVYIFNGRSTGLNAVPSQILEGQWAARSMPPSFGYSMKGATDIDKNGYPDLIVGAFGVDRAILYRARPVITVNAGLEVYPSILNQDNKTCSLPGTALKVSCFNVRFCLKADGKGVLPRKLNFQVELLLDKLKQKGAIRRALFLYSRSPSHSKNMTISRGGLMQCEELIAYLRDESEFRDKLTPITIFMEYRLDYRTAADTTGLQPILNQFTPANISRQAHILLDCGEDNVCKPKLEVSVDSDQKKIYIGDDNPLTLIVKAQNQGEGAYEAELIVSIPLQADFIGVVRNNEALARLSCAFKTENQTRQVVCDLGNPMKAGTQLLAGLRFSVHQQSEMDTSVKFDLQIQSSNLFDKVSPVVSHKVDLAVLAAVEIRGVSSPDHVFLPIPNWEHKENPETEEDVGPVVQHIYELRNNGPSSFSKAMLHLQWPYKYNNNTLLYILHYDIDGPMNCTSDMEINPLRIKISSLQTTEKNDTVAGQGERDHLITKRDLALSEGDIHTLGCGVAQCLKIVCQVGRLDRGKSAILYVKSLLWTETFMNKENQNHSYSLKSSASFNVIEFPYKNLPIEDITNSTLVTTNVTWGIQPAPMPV
Sequence of integrin αvβ5 (Homo sapiens) (P18084 24-719, chain 2 of 2, further chain): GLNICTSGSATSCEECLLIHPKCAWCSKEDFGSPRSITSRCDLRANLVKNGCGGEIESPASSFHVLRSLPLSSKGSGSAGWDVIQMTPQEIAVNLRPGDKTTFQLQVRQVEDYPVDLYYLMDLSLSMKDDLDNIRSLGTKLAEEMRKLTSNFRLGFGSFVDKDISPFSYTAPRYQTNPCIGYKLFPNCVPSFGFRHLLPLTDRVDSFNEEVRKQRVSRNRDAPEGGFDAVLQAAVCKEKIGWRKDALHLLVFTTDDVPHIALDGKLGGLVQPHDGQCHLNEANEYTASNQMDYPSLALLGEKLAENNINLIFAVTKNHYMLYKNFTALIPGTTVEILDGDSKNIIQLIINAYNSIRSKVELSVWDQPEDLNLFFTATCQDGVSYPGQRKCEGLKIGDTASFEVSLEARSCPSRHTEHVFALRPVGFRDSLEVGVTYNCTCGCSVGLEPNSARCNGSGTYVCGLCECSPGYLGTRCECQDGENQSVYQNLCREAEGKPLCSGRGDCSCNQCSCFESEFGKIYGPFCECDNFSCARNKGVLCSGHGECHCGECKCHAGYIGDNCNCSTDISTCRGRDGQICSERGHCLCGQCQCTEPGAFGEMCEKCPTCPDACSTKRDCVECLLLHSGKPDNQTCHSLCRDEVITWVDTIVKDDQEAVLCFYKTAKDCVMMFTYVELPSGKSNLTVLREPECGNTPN

| pIC50 [1] | pIC50 [2] | Substance |
| --- | --- | --- |
| < 5.30 |  | GRGDS peptide |
|  | 9.96 | c(RGDyK) |
